In paper PMC2533787 (The Journal of Biological Chemistry, 2008):

Tests used:
[1] = target: CUB_C_TSG6 (the CUB domain and C-terminal 27 amino acids of human TSG-6) (human, UniProt P98066 129-277); assay: SPR
[2] = target: Full-length recombinant human TSG-6 (human, UniProt P98066 18-277); assay: SPR
Sequence of Full-length recombinant human TSG-6 (P98066 18-277): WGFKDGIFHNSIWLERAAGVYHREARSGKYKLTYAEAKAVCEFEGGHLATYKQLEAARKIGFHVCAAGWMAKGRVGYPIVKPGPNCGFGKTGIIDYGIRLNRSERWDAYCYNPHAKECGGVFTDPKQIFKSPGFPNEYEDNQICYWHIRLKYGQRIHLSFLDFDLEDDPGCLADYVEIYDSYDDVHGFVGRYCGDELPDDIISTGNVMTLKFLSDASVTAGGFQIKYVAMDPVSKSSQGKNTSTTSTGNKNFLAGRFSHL

Sequence of CUB_C_TSG6 (the CUB domain and C-terminal 27 amino acids of human TSG-6) (P98066 129-277): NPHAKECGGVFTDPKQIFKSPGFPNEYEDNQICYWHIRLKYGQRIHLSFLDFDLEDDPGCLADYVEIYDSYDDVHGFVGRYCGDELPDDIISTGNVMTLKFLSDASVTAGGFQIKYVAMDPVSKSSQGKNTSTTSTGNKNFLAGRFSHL

Row | Kd [1] | Kd [2] | Binder
1 | – | 1970 nM | soluble receptor activator of NF-κB ligand (ligand, UniProt O14788 140-317, looked up) IRAEKAMVDGSWLDLAKRSKLEAQPFAHLTINATDIPSGSHKVSLSSWYHDRGWAKISNMTFSNGKLIVNQDGFYYLYANICFRHHETSGDLATEYLQLMVYVTKTSIKIPSSHTLMKGGSTKYWSGNSEFHFYSINVGGFFKLRSGEEISIEVSNPSLLDPDQDATYFGAFKVRDID
2 | 2540 nM | 220 nM | bone morphogenetic protein-2 (ligand, UniProt P12643 283-396, looked up) QAKHKQRKRLKSSCKRHPLYVDFSDVGWNDWIVAPPGYHAFYCHGECPFPLADHLNSTNHAIVQTLVNSVNSKIPKACCVPTELSAISMLYLDENEKVVLKNYQDMVVEGCGCR

More lines, now with the values behind:

Row | Binder | Kd [1] | Kd [2]
3 | BMP-14 (ligand, UniProt P43026 382-501, looked up) APLATRQGKRPSKNLKARCSRKALHVNFKDMGWDDWIIAPLEYEAFHCEGLCEFPLRSHLEPTNHAVIQTLMNSMDPESTPPTCCVPTRLSPISILFIDSANNVVYKQYEDMVVESCGCR | 10800 nM | 184 nM
4 | BMP-13 (ligand, UniProt Q6KF10 336-455, looked up) TAFASRHGKRHGKKSRLRCSKKPLHVNFKELGWDDWIIAPLEYEAYHCEGVCDFPLRSHLEPTNHAIIQTLMNSMDPGSTPPSCCVPTKLTPISILYIDAGNNVVYKQYEDMVVESCGCR | 6880 nM | 236 nM
